For assay [1], the target named is BBMV proteins (receptor binding sites) in brush border membrane vesicles from European corn borer (ECB; Ostrinia nubilalis) larval midgut. In words: heterologous competition: unlabeled Cry1Be against 0.5 nM 125I Cry1Ab on ECB BBMVs.
Assay [2] addresses BBMV proteins (receptor binding sites) in brush border membrane vesicles from fall armyworm (FAW; Spodoptera frugiperda) larval midgut. The experiment in a line: heterologous competition: unlabeled Cry1Be against 0.5 nM 125I Cry1Ab on FAW BBMVs; reference is homologous Cry1Ab.
Assay [3] addresses BBMV proteins (receptor binding sites) in brush border membrane vesicles from European corn borer (ECB; Ostrinia nubilalis) larval midgut. In words: heterologous competition: unlabeled Cry1Be against 0.5 nM 125I Cry1Ab on ECB BBMVs; reference is homologous Cry1Ab.
Assay [4] addresses BBMV proteins (receptor binding sites) in brush border membrane vesicles from fall armyworm (FAW; Spodoptera frugiperda) larval midgut. In words: homologous competition: unlabeled Cry1Be against 0.5 nM 125I Cry1Be on FAW BBMVs.
Assay [5] has the same target. The experiment in a line: heterologous competition: unlabeled Cry1Be against 0.5 nM 125I Cry1Ab on FAW BBMVs.

B1: Cry1Be insecticidal protein (purified truncated Cry toxin) (ligand)
chain: IEDSLCIAEGNNIDPFVSASTVQTGINIAGRILGVLGVPFAGQIASFYSFLVGELWPRGRDPWEIFLEHVEQLIRQQVTENTRDTALARLQGLGNSFRAYQQSLEDWLENRDDARTRSVLYTQYIALELDFLNAMPLFAIRNQEVPLLMVYAQAANLHLLLLRDASLFGSEFGLTSQEIQRYYERQVEKTREYSDYCARWYNTGLNNLRGTNAESWLRYNQFRRDLTLGVLDLVALFPSYDTRVYPMNTSAQLTREIYTDPIGRTNAPSGFASTNWFNNNAPSFSAIEAAVIRPPHLLDFPEQLTIFSVLSRWSNTQYMNYWVGHRLESRTIRGSLSTSTHGNTNTSINPVTLQFTSRDVYRTESFAGINILLTTPVNGVPWARFNWRNPLNSLRGSLLYTIGYTGVGTQLFDSETELPPETTERPNYESYSHRLSNIRLISGNTLRAPVYSWTHRSADRTNTISSDSITQIPLVKSFNLNSGTSVVSGPGFTGGDIIRTNVNGSVLSMGLNFNNTSLQRYRVRVRYAASQTMVLRVTVGGSTTFDQGFPSTMSANESLTSQSFRFAEFPVGISASGSQTAGISISNNAGRQTFHFDKIEFIPITAT
modifications: ^125I iodination (Iodo-Beads) in the radiolabeled form only; sites not stated
In general, IC50 refers to the midpoint of a concentration-inhibition curve. Higher therefore signals weaker potency. Regarding B1, the half-inhibitory concentration (IC50) in assay [1] was found to be 40 nM; in assay [4] it was 2 nM; in assay [5], 300 nM. The fold greater concentration for 50% displacement, against Cry1Ab in assay [2] is 1000 fold. Moreover, the fold higher concentration for 50% displacement, against Cry1Ab in assay [3] was determined as 80 fold.

These data come from US20120324606A1.
